Assay [1] has as its target human Heat Shock Factor 1 (HSF1) tagged with GFP (Homo sapiens; Aequorea victoria) (UniProt Q00613). In words: AptA-MS: GFP-aptamer pull-down of HSF1-GFP from HCT116 lysate, mass spectrometry, SAINT probability score of interaction.
Assay [2] shares this target. In words: AptA-MS of HSF1-GFP from heat-shocked HCT116 cells, SAINT probability score of interaction.
The target is the same in assay [3]. The assay can be described thus: AptA-MS of HSF1-GFP from non-heat-shocked HCT116 cells, SAINT probability score of interaction.

UniProt Q00613, sequence (Q00613 whole entry): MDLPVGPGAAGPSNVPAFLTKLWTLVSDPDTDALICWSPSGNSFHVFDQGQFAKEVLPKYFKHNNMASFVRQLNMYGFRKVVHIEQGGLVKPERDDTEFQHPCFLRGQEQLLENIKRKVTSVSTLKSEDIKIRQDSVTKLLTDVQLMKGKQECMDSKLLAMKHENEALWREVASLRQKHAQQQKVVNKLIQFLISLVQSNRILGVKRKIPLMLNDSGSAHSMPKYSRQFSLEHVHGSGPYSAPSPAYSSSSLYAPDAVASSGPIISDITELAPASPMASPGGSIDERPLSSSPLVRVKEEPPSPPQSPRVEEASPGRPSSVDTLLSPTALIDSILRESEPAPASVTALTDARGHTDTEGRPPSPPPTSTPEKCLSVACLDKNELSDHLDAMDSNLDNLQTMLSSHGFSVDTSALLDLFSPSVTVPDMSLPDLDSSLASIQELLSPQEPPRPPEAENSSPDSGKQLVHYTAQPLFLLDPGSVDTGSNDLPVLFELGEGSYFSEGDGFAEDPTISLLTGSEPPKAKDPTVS

Regarding “Elongation Factor 1-alpha 1 (from UniProt P68104 2-462)”, the SAINT score in assay [1] came out at 0.69.
For “Elongation Factor 1-alpha 2 (from UniProt Q05639 2-463)”, the SAINT score in assay [1] was found to be 0.66.
Take “Thymidylate Kinase (from UniProt P23919 2-212) (enzyme)”: the SAINT score in assay [2] stood at 0.98.
On to HSF2 (from UniProt Q03933 1-536), for which the SAINT score in assay [3] came to 0.78.
On to “translation elongation factor HBS1 (from UniProt Q9Y450 1-684)”, for which the SAINT score in assay [2] was found to be 0.92.

Values taken from patent US20210254073A1.
